Earlier results, collected in paper PMC12461627, “Locking CBL TKBD in its native conformation presents a novel therapeutic opportunity in mutant CBL-dependent leukemia” (Molecular Therapy, 2025).

Target: pSYK peptide (Homo sapiens) (UniProt P43405)
Details: cited from earlier work

CBL TKBD (from UniProt P22681)
Kd: 1.48 µM
